# Source: article PMC6325117, “Highly modified and immunoactive N-glycans of the canine heartworm” (Nature Communications, 2019)
# B1: natural human C-reactive protein (natural protein, UniProt P02741 19-224, looked up)
# chain: QTDMSRKAFVFPKESDTSYVSLKAPLTKPLKAFTVCLHFYTELSSTRGYSIFSYATKRQDNEILIFWSKDIGYSFTVGGSEILFEVPEVTVAPVHICTSWESASGIVEFWVDGKPRVRKSLKKGYTVGAEASIILGQEQDSFGGNFEGSQSLVGDIGNVNMWDFVLSPDEINTIYLGGPFSPNVLNWRALKYEVQGEVFTKPQLWP
# notes: C-reactive protein, human, natural; called pentameric in the discussion; also called CRP; human pentraxin C-reactive protein; source: bought: MPBio (215231505)
# Target: T1, human complement component C1q (human, UniProt P02745 23-245; P02746 28-253; P02747 29-245)
# T1 construct: complement C1q subcomponent subunit A, human; complement C1q subcomponent subunit B, human; complement C1q subcomponent subunit C, human; Detected with fluorescent anti-C1q; also called complement C1q; source: bought: Sigma (C1740); copies: + +
# T1 sequence (P02745 23-245, chain 1 of 3): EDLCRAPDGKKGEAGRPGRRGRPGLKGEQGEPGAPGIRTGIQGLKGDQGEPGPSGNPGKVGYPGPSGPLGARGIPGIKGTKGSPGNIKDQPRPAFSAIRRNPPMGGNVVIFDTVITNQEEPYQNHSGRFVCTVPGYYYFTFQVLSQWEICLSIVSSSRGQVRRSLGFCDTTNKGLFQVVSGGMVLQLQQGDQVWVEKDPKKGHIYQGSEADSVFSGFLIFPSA
# T1 sequence (P02746 28-253, chain 2 of 3): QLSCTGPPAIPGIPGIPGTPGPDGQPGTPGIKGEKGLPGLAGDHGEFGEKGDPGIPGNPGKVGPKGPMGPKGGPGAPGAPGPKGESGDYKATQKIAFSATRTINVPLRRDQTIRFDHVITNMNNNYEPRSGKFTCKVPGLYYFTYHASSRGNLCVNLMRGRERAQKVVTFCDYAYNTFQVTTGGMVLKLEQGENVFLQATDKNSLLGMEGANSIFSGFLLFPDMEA
# T1 sequence (P02747 29-245, chain 3 of 3): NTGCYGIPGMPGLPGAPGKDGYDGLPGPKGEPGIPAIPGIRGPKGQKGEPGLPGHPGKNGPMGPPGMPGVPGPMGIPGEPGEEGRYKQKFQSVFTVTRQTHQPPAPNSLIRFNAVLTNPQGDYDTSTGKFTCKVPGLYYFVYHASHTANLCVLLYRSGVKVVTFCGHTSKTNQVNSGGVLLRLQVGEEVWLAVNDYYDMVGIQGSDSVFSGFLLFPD
# Test: glycan array; AEAB-labelled D. immitis neutral N-glycan pool printed on NHS-modified glass slides; incubated first with human CRP (5 µg/ml), then serially with C1q and fluorescent anti-C1q; fluorescence read-out, mean of 10 spots
# Conditions: both partners purified
binder,measurement,value
B1,binding result,binds
